Holding throughout (assay): co-IP; CDC37-nanoKAZ interaction assay: cleared lysates (HENG buffer, 50 mM HEPES-KOH pH 7.9, 150 mM NaCl, 20 mM Na2MoO4, 0.5% Triton X-100) of 293T cells added to 96-well plates coated with anti-FLAG M2, 4 °C for 3 h; luminescence of the captured CDC37-nanoKAZ normalized to the amount of captured 3xFLAG-DYRK1A; in some experiments cells were treated with FINDY or RD0392 for 24 h before lysis
Holding throughout (conditions): partners not purified

For one assay, the target named is T1, 3xFLAG-DYRK1A S97A (human, UniProt Q13627 1-763, S97A).
T1 construct: DYRK1A, the variant in which Ser529 corresponds to Ser520 of the other variant; As m2 with the substitution; also called S97A mutant; source: 293T cells, transiently transfected, in lysate

In the next assay the target is T2, 3xFLAG-DYRK1A Y321F (human, UniProt Q13627 1-763, Y321F).
T2 construct: DYRK1A, the variant in which Ser529 corresponds to Ser520 of the other variant; As m2 with the substitution; also called Y321F mutant; source: 293T cells, transiently transfected, in lysate

For assay [1], the target named is T3, 3xFLAG-DYRK1A Y319F/Y321F (human, UniProt Q13627 1-763, Y319F | Y321F).
T3 construct: DYRK1A, the variant in which Ser529 corresponds to Ser520 of the other variant; As m2 with the two substitutions; also called Y319F/Y321F mutant; Y321F/Y319F; source: 293T cells, transiently transfected, in lysate

A further assay addresses T4, 3xFLAG-DYRK1A K188R (human, UniProt Q13627 1-763, K188R).
T4 construct: DYRK1A, the variant in which Ser529 corresponds to Ser520 of the other variant; As m2 with the substitution; also called K188R mutant; kinase-dead mutant; source: 293T cells, transiently transfected, in lysate

B1: CDC37 fused with luciferase nanoKAZ (natural protein, UniProt Q16543 1-378, looked up)
chain: MVDYSVWDHIEVSDDEDETHPNIDTASLFRWRHQARVERMEQFQKEKEELDRGCRECKRKVAECQRKLKELEVAEGGKAELERLQAEAQQLRKEERSWEQKLEEMRKKEKSMPWNVDTLSKDGFSKSMVNTKPEKTEEDSEEVREQKHKTFVEKYEKQIKHFGMLRRWDDSQKYLSDNVHLVCEETANYLVIWCIDLEVEEKCALMEQVAHQTIVMQFILELAKSLKVDPRACFRQFFTKIKTADRQYMEGFNDELEAFKERVRGRAKLRIEKAMKEYEEEERKKRLGPGGLDPVEVYESLPEELQKCFDVKDVQMLQDAISKMDPTDAKYHMQRCIDSGLWVPNSKASEAKEGEEAGPGDPLLEAVPKTGDEKDVSV
notes: kinase-specific co-chaperone CDC37; also called CDC37-nanoKAZ; source: 293T cells stably expressing CDC37-nanoKAZ, in lysate
Take B1: the “fold change of luminescence relative to intact DYRK1A” value came to 2.2 fold with 3xFLAG-DYRK1A S97A, 5.2 fold in the assay with 3xFLAG-DYRK1A Y321F, 6.2 fold in assay [1] and 54 fold with 3xFLAG-DYRK1A K188R.
